Experimental findings from patent US20230212319A1, “NOVEL ANTIGEN BINDING DOMAINS AND SYNTHETIC ANTIGEN RECEPTORS INCORPORATING THE SAME” (University of Southern California, priority 2020, published 2023) are described below.

Common to all, as to assay type: cell-based
The test system of one test is RAJI cells. In words: JNG assay, co-culture with RAJI cells. The following applies: JNG cells expressing construct, co-culture with Raji. The essentials: (§1)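 Jurkat-NFAT-GFP (JNG) cells stably expressing SAR constructs via lentiviral transduction and puromycin/blasticidin selection were cocultured with target cells at E:T ~1:2 for ~4–18 h. NFAT-driven GFP was measured by FACS versus parental JNG cells; scores +/- to 5+ denote ~5–50% GFP-positive cells.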

The next test concerns Nalm6 cells. Description: JNG assay, co-culture with Nalm6 cells. The following applies: co-culture with Nalm6. In short, it runs like this:
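Jurkat NFAT-GFP reporter cells stably expressing lentivirally delivered SARs (puromycin or blasticidin selection) were cocultured with target cells at E:T ~1:2 for ~4–18 h. GFP was read by FACS, and % GFP+ cells were scored against parental reporter cells (+/-, +, 2+…5+ ≈ 5%, 10%, 20%…50%).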

The next test deals with RS;411. Description: JNG assay, co-culture with RS;411 cells. The following applies: co-culture with RS411. In short, it runs like this:
as §1

A further test relates to U266 cells. Description: JNG NFAT-GFP induction on co-culture with U266.

B1: 22145 (protein)
chain: MALPVTALLLPLALLLHAARPACEVQLLESGGGLIQPGGSLRLSCAASGFTFSSHAMTWVRQAPGKGLEWVSAISGSGDYTHYADSVKGRFTISRDNSKNTVYLQMNSLRAEDSAVYYCAKDEDGGSLLGHRGQGTLVTVSSGTGGGGSGGGGSGGGGSEFDIQMTQSPSSLSASVGDRVTITCRASQDISNYLNWYQQKPGKAVKLLIYYTSILHSGVPSRFSGSGSGTDYTLTISSLQPEDFATYFCQQGNTLPWTFGGGTKVEIKLEGQPKANPTVTLFPPSSEELQANKATLVCLISDFYPGAVTVAWKADGSPVKAGVETTKPSKQSNNKYAASSYLSLTPEQWKSHRSYSCQVTHEGSTVEKTVAPTECSPIKTDVITMDPKDNCSKDANDTLLLQLTNTSAYYMYLLLLLKSVVYFAIITCCLLRRTAFCCNGEKSRAKRSGSGATNFSLLKQAGDVEENPGPTSATMDWIWRILFLVGAATGAHSGPQVQLQESGGGLAQAGGSLRLSCAASGRTFSMGWFRQAPGKEREFVAAITYSGGSPYYASSVRGRFTISRDNAKNTVYLQMNSLKPEDTAVYYCAANPTYGSDWNAENWGQGTQVTVSSGSGGGGSGGGGSGGGGSFEVQLVESGGGLVKPGGSLKLSCAASGFAFSIYDMSWVRQAPGKGLEWVAYISSGGGTTYYPDTVKGRFTISRDNAKNTLYLQMSSLRAEDTAMYYCARHSGYGSSYGVLFAYWGQGTLVTVSSTRASTKGPSVFPLAPSSKSTSGGTAALGCLVKDYFPEPVTVSWNSGALTSGVHTFPAVLQSSGLYSLSSVVTVPSSSLGTQTYICNVNHKPSNTKVDKRVEPKSCEVKTDSTDHVKPKETENTKQPSKSCHKPKAIVHTEKVNMMSLTVLGLRMLFAKTVAVNFLLTAKLFFLRAKRSGSGVKQTLNFDLLKLAGDVESNPGPSRGHMTEYKPTVRLATRDDVPRAVRTLAAAFADYPATRHTVDPDRHIERVTELQELFLTRVGLDIGKVWVADDGAAVAVWTTPESVEAGAVFAEIGPRMAELSGSRLAAQQQMEGLLAPHRPKEPAWFLATVGVSPDHQGKGLGSAVVLPGVEAAERAGVPAFLETSAPRNLPFYERLGFTVTADVEVPEGPRTWCMTRKPGA
Take B1: in the test on RAJI cells, the “NFAT-GFP ASSAY: Raji” value was “+/- (refer to approximately 5%, 10%, 20%, 30%, 40% and 50% GFP positive cells)”. Besides, the “NFAT-GFP ASSAY: Nalm6” value with Nalm6 cells is “+ (refer to approximately 5%, 10%, 20%, 30%, 40% and 50% GFP positive cells)”. Moreover, the “NFAT-GFP ASSAY: RS411” value with RS;411 is “+ (refer to approximately 5%, 10%, 20%, 30%, 40% and 50% GFP positive cells)”. Moreover, the “NFAT-GFP ASSAY: U266” value in the test on U266 cells is 2+ (refer to approximately 5%, 10%, 20%, 30%, 40% and 50% GFP positive cells).
